{
  "source": "patent US20150132310A1",
  "key": {"[1]": {"target": "human recombinant CD11b I domain (N-terminal 6x-His, C-terminal 6x-glycine linker and 3x-Flag) (human) (UniProt P11215)", "experiment": "SPR (Biacore T100), human I domain immobilised on CM5 chip, LukAB as analyte, multi cycle kinetics"}, "[2]": {"target": "human CD11b (Integrin alpha-M), full length (human) (UniProt P11215)", "experiment": "cell-based or functional assay"}, "[3]": {"target": "human recombinant CD11b I domain (N-terminal 6x-His, C-terminal 6x-glycine linker and 3x-Flag) (human) (UniProt P11215)", "experiment": "SPR"}, "[4]": {"target": "Glucose-6-phosphate isomerase (human) (UniProt P06744)", "experiment": "His-LukAB pull-down from solubilised primary human PMNs on nickel resin, mass spectrometry"}, "[5]": {"target": "Cntm_P13645 (UniProt P13645)", "sequence (P13645 whole entry)": "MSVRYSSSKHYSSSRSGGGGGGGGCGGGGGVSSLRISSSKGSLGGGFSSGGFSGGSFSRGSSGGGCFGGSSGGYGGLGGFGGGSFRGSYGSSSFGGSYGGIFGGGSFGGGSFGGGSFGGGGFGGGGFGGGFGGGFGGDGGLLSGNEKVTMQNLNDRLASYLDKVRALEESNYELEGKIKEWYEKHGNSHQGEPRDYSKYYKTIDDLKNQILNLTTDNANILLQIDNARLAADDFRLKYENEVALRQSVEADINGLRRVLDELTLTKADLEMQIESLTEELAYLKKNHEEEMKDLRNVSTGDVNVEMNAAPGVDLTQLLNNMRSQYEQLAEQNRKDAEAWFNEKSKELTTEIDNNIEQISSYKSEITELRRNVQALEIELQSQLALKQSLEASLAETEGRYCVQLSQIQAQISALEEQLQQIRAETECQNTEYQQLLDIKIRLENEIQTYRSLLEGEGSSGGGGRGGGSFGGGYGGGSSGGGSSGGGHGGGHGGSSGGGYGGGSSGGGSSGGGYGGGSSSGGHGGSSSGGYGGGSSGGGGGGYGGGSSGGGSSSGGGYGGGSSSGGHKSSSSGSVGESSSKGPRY", "experiment": "His-LukAB pull-down from solubilised primary human PMNs on nickel resin, mass spectrometry"}, "[6]": {"target": "Hemoglobin subunit beta (human) (UniProt P68871)", "sequence (P68871 2-147 limits assumed)": "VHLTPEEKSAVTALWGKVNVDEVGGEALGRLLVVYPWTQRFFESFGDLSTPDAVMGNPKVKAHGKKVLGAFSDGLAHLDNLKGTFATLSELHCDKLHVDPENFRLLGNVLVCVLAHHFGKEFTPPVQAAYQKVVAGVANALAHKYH", "experiment": "His-LukAB pull-down from solubilised primary human PMNs on nickel resin, mass spectrometry"}, "[7]": {"target": "Transketolase (human) (UniProt P29401)", "sequence (P29401 whole entry)": "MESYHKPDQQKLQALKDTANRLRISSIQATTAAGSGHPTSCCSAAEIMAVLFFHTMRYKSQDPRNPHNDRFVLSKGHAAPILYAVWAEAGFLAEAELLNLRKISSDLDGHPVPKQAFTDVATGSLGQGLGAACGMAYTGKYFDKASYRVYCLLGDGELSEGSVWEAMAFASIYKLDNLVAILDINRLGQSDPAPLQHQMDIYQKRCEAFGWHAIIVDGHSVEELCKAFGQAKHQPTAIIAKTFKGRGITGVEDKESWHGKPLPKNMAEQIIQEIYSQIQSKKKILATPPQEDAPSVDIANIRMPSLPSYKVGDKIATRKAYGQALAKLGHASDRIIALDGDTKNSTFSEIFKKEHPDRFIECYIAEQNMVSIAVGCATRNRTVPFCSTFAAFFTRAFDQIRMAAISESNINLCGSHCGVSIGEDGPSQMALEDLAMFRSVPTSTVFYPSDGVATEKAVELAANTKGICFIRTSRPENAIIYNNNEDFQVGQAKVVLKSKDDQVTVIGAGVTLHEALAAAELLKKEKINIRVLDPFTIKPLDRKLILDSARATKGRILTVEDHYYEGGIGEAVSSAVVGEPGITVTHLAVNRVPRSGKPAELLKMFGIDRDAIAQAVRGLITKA", "experiment": "His-LukAB pull-down from solubilised primary human PMNs on nickel resin, mass spectrometry"}, "[8]": {"target": "CD63 antigen (human) (UniProt P08962)", "sequence (P08962 2-238 limits assumed)": "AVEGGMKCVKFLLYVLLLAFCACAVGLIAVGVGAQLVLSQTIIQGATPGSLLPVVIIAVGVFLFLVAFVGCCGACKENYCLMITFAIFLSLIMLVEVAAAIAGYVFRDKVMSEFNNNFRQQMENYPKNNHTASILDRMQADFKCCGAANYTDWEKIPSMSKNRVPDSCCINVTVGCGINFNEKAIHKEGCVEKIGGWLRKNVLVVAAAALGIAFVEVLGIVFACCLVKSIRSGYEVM", "experiment": "His-LukAB pull-down from solubilised primary human PMNs on nickel resin, mass spectrometry"}, "[9]": {"target": "Peptidoglycan recognition protein (human) (UniProt O75594)", "experiment": "His-LukAB pull-down from solubilised primary human PMNs on nickel resin, mass spectrometry"}, "[10]": {"target": "Malic enzyme (human) (UniProt P23368)", "experiment": "His-LukAB pull-down from solubilised primary human PMNs on nickel resin, mass spectrometry"}, "[11]": {"target": "Putative uncharacterized protein LCN2 (human) (UniProt P80188)", "experiment": "His-LukAB pull-down from solubilised primary human PMNs on nickel resin, mass spectrometry"}, "[12]": {"target": "cDNA FLJ55493 (human) (UniProt B4DMF5)", "experiment": "His-LukAB pull-down from solubilised primary human PMNs on nickel resin, mass spectrometry"}, "[13]": {"target": "Pyruvate kinase isozymes M1/M2 (human) (UniProt P14618)", "experiment": "His-LukAB pull-down from solubilised primary human PMNs on nickel resin, mass spectrometry"}, "[14]": {"target": "Glyceraldehyde-3-phosphate dehydrogenase (human) (UniProt P04406)", "experiment": "His-LukAB pull-down from solubilised primary human PMNs on nickel resin, mass spectrometry"}, "[15]": {"target": "Actin (human) (UniProt P63261)", "experiment": "His-LukAB pull-down from solubilised primary human PMNs on nickel resin, mass spectrometry"}, "[16]": {"target": "Bactericidal permeability-increasing protein (human) (UniProt P17213)", "sequence (P17213 32-487 limits assumed)": "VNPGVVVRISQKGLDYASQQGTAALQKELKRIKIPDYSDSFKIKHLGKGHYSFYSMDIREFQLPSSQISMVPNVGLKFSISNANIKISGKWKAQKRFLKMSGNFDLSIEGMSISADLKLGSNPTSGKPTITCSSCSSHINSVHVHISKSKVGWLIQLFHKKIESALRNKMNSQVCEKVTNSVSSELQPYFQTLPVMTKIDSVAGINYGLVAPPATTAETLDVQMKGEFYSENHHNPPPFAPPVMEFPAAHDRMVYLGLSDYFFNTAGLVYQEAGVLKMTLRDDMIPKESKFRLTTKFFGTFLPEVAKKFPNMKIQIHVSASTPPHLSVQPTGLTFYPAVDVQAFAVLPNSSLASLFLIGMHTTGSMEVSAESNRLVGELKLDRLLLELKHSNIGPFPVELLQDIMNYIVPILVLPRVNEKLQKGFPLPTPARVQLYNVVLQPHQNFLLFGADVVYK", "experiment": "His-LukAB pull-down from solubilised primary human PMNs on nickel resin, mass spectrometry"}, "[17]": {"target": "Myeloperoxidase (human) (UniProt P05164)", "experiment": "His-LukAB pull-down from solubilised primary human PMNs on nickel resin, mass spectrometry"}, "[18]": {"target": "cDNA FLJ75120 (human) (UniProt Q99536)", "experiment": "His-LukAB pull-down from solubilised primary human PMNs on nickel resin, mass spectrometry"}, "[19]": {"target": "Beta-adrenergic receptor kinase 1 (human) (UniProt P25098)", "experiment": "His-LukAB pull-down from solubilised primary human PMNs on nickel resin, mass spectrometry"}, "[20]": {"target": "Myosin-9 (human) (UniProt P35579)", "experiment": "His-LukAB pull-down from solubilised primary human PMNs on nickel resin, mass spectrometry"}, "[21]": {"target": "cDNA FLJ55635 (human)", "experiment": "His-LukAB pull-down from solubilised primary human PMNs on nickel resin, mass spectrometry"}, "[22]": {"target": "Protein tyrosine phosphatase (human) (UniProt P08575)", "experiment": "His-LukAB pull-down from solubilised primary human PMNs on nickel resin, mass spectrometry"}, "[23]": {"target": "ATP synthase subunit beta (human) (UniProt P06576)", "experiment": "His-LukAB pull-down from solubilised primary human PMNs on nickel resin, mass spectrometry"}, "[24]": {"target": "Serum albumin (human) (UniProt P02768)", "experiment": "His-LukAB pull-down from solubilised primary human PMNs on nickel resin, mass spectrometry"}, "[25]": {"target": "E3 ubiquitin-protein ligase CBL (human) (UniProt P22681)", "experiment": "His-LukAB pull-down from solubilised primary human PMNs on nickel resin, mass spectrometry"}, "[26]": {"target": "Heat shock 70kDa protein 1A (human) (UniProt A8K5I0)", "experiment": "His-LukAB pull-down from solubilised primary human PMNs on nickel resin, mass spectrometry"}, "[27]": {"target": "Endoplasmic reticulum resident protein ERp44 (human) (UniProt Q9BS26)", "experiment": "His-LukAB pull-down from solubilised primary human PMNs on nickel resin, mass spectrometry"}, "[28]": {"target": "Hemoglobin subunit alpha (human) (UniProt P69905)", "experiment": "His-LukAB pull-down from solubilised primary human PMNs on nickel resin, mass spectrometry"}, "[29]": {"target": "cDNA, FLJ92148 (human) (UniProt B2R4M6)", "experiment": "His-LukAB pull-down from solubilised primary human PMNs on nickel resin, mass spectrometry"}, "[30]": {"target": "Protein S100-A8 (human) (UniProt P05109)", "sequence (P05109 whole entry)": "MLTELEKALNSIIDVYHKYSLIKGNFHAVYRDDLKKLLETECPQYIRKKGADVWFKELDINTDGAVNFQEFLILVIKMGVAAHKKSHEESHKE", "experiment": "His-LukAB pull-down from solubilised primary human PMNs on nickel resin, mass spectrometry"}, "[31]": {"target": "cDNA FLJ53963 (human)", "sequence (P30740 whole entry)": "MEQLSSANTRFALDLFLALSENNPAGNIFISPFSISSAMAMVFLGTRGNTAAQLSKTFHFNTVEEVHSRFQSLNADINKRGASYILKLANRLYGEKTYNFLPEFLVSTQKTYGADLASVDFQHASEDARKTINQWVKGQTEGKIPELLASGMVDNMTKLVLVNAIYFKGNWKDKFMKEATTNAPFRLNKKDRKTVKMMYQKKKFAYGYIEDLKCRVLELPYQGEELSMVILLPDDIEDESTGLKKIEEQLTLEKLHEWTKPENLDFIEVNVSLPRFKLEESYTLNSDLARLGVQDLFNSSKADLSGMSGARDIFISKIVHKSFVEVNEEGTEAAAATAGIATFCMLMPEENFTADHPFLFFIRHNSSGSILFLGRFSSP", "experiment": "His-LukAB pull-down from solubilised primary human PMNs on nickel resin, mass spectrometry"}, "[32]": {"target": "human CD18 (Integrin beta 2) (human)", "experiment": "His-LukAB pull-down from solubilised primary human PMNs on nickel resin, mass spectrometry"}, "[33]": {"target": "Catalase (human) (UniProt P04040)", "experiment": "His-LukAB pull-down from solubilised primary human PMNs on nickel resin, mass spectrometry"}, "[34]": {"target": "Alpha-enolase (human) (UniProt P06733)", "experiment": "His-LukAB pull-down from solubilised primary human PMNs on nickel resin, mass spectrometry"}, "[35]": {"target": "SFPQ protein (human)", "experiment": "His-LukAB pull-down from solubilised primary human PMNs on nickel resin, mass spectrometry"}, "[36]": {"target": "Guanine nucleotide-binding protein G(i) (human) (UniProt P04899)", "experiment": "His-LukAB pull-down from solubilised primary human PMNs on nickel resin, mass spectrometry"}, "[37]": {"target": "Plastin-2 (human) (UniProt P13796)", "sequence (P13796 2-627 limits assumed)": "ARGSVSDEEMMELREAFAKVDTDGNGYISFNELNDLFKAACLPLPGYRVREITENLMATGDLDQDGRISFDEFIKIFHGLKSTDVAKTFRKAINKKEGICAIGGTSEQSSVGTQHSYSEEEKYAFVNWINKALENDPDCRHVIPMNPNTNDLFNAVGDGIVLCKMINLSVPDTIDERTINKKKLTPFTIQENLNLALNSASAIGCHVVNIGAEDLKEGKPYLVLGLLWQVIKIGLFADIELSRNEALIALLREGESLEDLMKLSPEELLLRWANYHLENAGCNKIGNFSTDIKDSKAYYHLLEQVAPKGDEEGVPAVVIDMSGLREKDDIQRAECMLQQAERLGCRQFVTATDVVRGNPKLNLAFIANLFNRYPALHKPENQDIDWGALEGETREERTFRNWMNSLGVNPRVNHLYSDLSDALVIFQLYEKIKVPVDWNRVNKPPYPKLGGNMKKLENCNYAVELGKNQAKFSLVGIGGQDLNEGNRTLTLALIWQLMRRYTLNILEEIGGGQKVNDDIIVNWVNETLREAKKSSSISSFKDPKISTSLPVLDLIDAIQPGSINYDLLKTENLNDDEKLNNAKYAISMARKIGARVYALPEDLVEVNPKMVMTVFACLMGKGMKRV", "experiment": "His-LukAB pull-down from solubilised primary human PMNs on nickel resin, mass spectrometry"}, "[38]": {"target": "cDNA FLJ76817 (human)", "experiment": "His-LukAB pull-down from solubilised primary human PMNs on nickel resin, mass spectrometry"}, "[39]": {"target": "Adenylyl cyclase-associated protein (human) (UniProt B2RDY9)", "experiment": "His-LukAB pull-down from solubilised primary human PMNs on nickel resin, mass spectrometry"}, "[40]": {"target": "human CD11b (Integrin alpha-M), full length (human) (UniProt P11215)", "experiment": "His-LukAB pull-down from solubilised primary human PMNs on nickel resin, mass spectrometry"}, "[41]": {"target": "Mitogen-activated protein kinase 1 (human) (UniProt P28482)", "experiment": "His-LukAB pull-down from solubilised primary human PMNs on nickel resin, mass spectrometry"}, "[42]": {"target": "Alpha-actinin-1 (human) (UniProt P12814)", "sequence (P12814 whole entry)": "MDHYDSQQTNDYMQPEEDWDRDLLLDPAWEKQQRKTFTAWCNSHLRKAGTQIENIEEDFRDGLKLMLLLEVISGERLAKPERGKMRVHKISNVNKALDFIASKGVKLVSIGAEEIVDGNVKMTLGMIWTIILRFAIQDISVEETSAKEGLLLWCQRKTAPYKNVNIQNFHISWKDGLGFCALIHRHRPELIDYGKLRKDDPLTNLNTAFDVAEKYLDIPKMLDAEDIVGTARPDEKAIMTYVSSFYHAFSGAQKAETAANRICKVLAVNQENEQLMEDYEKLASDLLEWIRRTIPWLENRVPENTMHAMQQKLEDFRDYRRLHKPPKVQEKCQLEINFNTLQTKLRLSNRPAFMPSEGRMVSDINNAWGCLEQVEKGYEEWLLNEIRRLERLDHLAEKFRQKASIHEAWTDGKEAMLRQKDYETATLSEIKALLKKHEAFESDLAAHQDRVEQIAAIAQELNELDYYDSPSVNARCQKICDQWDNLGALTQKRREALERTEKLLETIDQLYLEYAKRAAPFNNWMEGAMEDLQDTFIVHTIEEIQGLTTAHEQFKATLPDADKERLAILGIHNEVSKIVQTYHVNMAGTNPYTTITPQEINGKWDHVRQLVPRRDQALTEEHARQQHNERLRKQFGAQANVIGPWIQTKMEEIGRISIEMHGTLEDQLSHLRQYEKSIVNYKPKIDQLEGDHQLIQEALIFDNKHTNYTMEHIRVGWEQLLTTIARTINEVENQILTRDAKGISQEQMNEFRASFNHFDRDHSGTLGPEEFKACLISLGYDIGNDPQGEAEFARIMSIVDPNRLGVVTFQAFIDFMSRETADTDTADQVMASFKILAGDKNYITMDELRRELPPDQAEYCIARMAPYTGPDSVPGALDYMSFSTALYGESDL", "experiment": "His-LukAB pull-down from solubilised primary human PMNs on nickel resin, mass spectrometry"}, "[43]": {"target": "Adipocyte plasma membrane-associated protein (human) (UniProt Q9HDC9)", "sequence (Q9HDC9 2-416 limits assumed)": "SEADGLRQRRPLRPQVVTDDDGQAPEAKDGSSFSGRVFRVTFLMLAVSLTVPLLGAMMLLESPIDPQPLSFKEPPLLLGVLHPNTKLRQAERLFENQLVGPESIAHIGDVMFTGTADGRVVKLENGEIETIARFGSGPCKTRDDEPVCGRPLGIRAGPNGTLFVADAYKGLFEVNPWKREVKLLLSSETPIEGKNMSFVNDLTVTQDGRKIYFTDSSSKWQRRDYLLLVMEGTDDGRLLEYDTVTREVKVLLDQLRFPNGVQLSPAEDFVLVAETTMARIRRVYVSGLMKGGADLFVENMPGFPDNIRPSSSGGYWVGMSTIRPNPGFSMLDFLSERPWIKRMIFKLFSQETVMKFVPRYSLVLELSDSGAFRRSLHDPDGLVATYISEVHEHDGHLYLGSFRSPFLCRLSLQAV", "experiment": "His-LukAB pull-down from solubilised primary human PMNs on nickel resin, mass spectrometry"}, "[44]": {"target": "cDNA FLJ78440 (human) (UniProt A8K494)", "experiment": "His-LukAB pull-down from solubilised primary human PMNs on nickel resin, mass spectrometry"}, "[45]": {"target": "6-phosphogluconate dehydrogenase (human) (UniProt P52209)", "experiment": "His-LukAB pull-down from solubilised primary human PMNs on nickel resin, mass spectrometry"}, "[46]": {"target": "Coronin-1A (human) (UniProt P31146)", "sequence (P31146 2-461 limits assumed)": "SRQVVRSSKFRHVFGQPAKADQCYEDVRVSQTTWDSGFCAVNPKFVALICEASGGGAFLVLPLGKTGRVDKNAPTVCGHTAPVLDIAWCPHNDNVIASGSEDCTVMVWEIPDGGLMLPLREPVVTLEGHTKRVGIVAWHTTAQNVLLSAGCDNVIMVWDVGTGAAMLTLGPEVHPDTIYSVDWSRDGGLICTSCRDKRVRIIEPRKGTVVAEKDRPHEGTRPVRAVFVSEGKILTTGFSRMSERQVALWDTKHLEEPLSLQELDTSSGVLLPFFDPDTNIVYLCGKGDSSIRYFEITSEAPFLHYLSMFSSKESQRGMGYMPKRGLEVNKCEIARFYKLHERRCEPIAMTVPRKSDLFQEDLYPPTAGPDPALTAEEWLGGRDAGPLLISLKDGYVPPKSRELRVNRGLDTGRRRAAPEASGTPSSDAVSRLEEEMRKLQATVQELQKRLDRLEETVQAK", "experiment": "His-LukAB pull-down from solubilised primary human PMNs on nickel resin, mass spectrometry"}, "[47]": {"target": "human recombinant Mac-1 (CD11b/CD18, integrin alphaM/beta2), R&D Systems (human) (UniProt P05107)", "experiment": "SPR (Biacore T100), Mac-1 immobilised on CM5 chip, LukAB as analyte, multi cycle kinetics"}},
  "data": [
    {"substance": "His-tagged LukAB (leukotoxin AB, purified recombinant from S. aureus Newman)", "values": [
      {"measurement": "Kd", "setting": "[1]", "result": 1.92, "unit": "nM"},
      {"measurement": "percent depletion of CD11b+ HEK293T cells (CD11b transfected), 40 µg/ml LukAB, 2 hours, flow cytometry", "setting": "[2]", "result": "80 to 90", "unit": "%"},
      {"measurement": "difference in Kd against the LukAB-murine CD11b I-domain interaction", "setting": "[3]", "result": "8 to 9", "unit": "logs"},
      {"measurement": "# of peptides", "setting": "[4]", "result": 3, "unit": "peptides"},
      {"measurement": "# of peptides", "setting": "[5]", "result": 10, "unit": "peptides"},
      {"measurement": "# of peptides", "setting": "[6]", "result": 5, "unit": "peptides"},
      {"measurement": "# of peptides", "setting": "[7]", "result": 4, "unit": "peptides"},
      {"measurement": "# of peptides", "setting": "[8]", "result": 3, "unit": "peptides"},
      {"measurement": "# of peptides", "setting": "[9]", "result": 4, "unit": "peptides"},
      {"measurement": "# of peptides", "setting": "[10]", "result": 5, "unit": "peptides"},
      {"measurement": "# of peptides", "setting": "[11]", "result": 5, "unit": "peptides"},
      {"measurement": "# of peptides", "setting": "[12]", "result": 5, "unit": "peptides"},
      {"measurement": "# of peptides", "setting": "[13]", "result": 9, "unit": "peptides"},
      {"measurement": "# of peptides", "setting": "[14]", "result": 6, "unit": "peptides"},
      {"measurement": "# of peptides", "setting": "[15]", "result": 7, "unit": "peptides"},
      {"measurement": "# of peptides", "setting": "[16]", "result": 6, "unit": "peptides"},
      {"measurement": "# of peptides", "setting": "[17]", "result": 7, "unit": "peptides"},
      {"measurement": "# of peptides", "setting": "[18]", "result": 5, "unit": "peptides"},
      {"measurement": "# of peptides", "setting": "[19]", "result": 3, "unit": "peptides"},
      {"measurement": "# of peptides", "setting": "[20]", "result": 3, "unit": "peptides"},
      {"measurement": "# of peptides", "setting": "[21]", "result": 7, "unit": "peptides"},
      {"measurement": "# of peptides", "setting": "[22]", "result": 3, "unit": "peptides"},
      {"measurement": "# of peptides", "setting": "[23]", "result": 5, "unit": "peptides"},
      {"measurement": "# of peptides", "setting": "[24]", "result": 13, "unit": "peptides"},
      {"measurement": "# of peptides", "setting": "[25]", "result": 3, "unit": "peptides"},
      {"measurement": "# of peptides", "setting": "[26]", "result": 5, "unit": "peptides"},
      {"measurement": "# of peptides", "setting": "[27]", "result": 4, "unit": "peptides"},
      {"measurement": "# of peptides", "setting": "[28]", "result": 4, "unit": "peptides"},
      {"measurement": "# of peptides", "setting": "[29]", "result": 4, "unit": "peptides"},
      {"measurement": "# of peptides", "setting": "[30]", "result": 5, "unit": "peptides"},
      {"measurement": "# of peptides", "setting": "[31]", "result": 3, "unit": "peptides"},
      {"measurement": "# of peptides", "setting": "[32]", "result": 12, "unit": "peptides"},
      {"measurement": "# of peptides", "setting": "[33]", "result": 3, "unit": "peptides"},
      {"measurement": "# of peptides", "setting": "[34]", "result": 3, "unit": "peptides"},
      {"measurement": "# of peptides", "setting": "[35]", "result": 4, "unit": "peptides"},
      {"measurement": "# of peptides", "setting": "[36]", "result": 3, "unit": "peptides"},
      {"measurement": "# of peptides", "setting": "[37]", "result": 8, "unit": "peptides"},
      {"measurement": "# of peptides", "setting": "[38]", "result": 3, "unit": "peptides"},
      {"measurement": "# of peptides", "setting": "[39]", "result": 4, "unit": "peptides"},
      {"measurement": "# of peptides", "setting": "[40]", "result": 17, "unit": "peptides"},
      {"measurement": "# of peptides", "setting": "[41]", "result": 5, "unit": "peptides"},
      {"measurement": "# of peptides", "setting": "[42]", "result": 3, "unit": "peptides"},
      {"measurement": "# of peptides", "setting": "[43]", "result": 5, "unit": "peptides"},
      {"measurement": "# of peptides", "setting": "[44]", "result": 8, "unit": "peptides"},
      {"measurement": "# of peptides", "setting": "[45]", "result": 3, "unit": "peptides"},
      {"measurement": "# of peptides", "setting": "[46]", "result": 6, "unit": "peptides"},
      {"measurement": "Kd", "setting": "[47]", "result": 38.4, "unit": "nM"}
    ]}
  ]
}
